Assay results: US20240117018A1

Key:
Test in all cases: cell-based or functional assay
[1] = target: HIV-1 Env of pseudovirus BJOX009000.02.4 (HIV-1)
[2] = target: HIV-1 Env of pseudovirus 6041.v3.c23 (HIV-1)
[3] = target: HIV-1 Env of pseudovirus A07412M1.vrc12 (HIV-1)
[4] = target: HIV-1 Env of pseudovirus BJOX028000.10.3 (HIV-1)
[5] = target: HIV-1 Env of pseudovirus 6952.v1.c20 (HIV-1)
[6] = target: HIV-1 Env of pseudovirus 3103.v3.c10 (HIV-1)
[7] = target: HIV-1 Env of pseudovirus X1254_c3 (HIV-1)
[8] = target: HIV-1 Env of pseudovirus 231965.c01 (HIV-1)
[9] = target: HIV-1 Env of pseudovirus R2184.c04 (HIV-1)
[10] = target: HIV-1 Env of pseudovirus BJOX025000.01.1 (HIV-1)
[11] = target: HIV-1 Env of pseudovirus 6545.v4.c1 (HIV-1)
[12] = target: HIV-1 Env of pseudovirus 6480.v4.c25 (HIV-1)
[13] = target: HIV-1 Env of pseudovirus X2131_C1_B5 (HIV-1)
[14] = target: HIV-1 Env of pseudovirus 620345.c01 (HIV-1)
[15] = target: HIV-1 Env of pseudovirus BJOX015000.11.5 (HIV-1)
[16] = target: HIV-1 Env of pseudovirus T255-34 (HIV-1)
[17] = target: HIV-1 Env of pseudovirus 3016.v5.c45 (HIV-1)
[18] = target: HIV-1 Env of pseudovirus P1981_C5_3 (HIV-1)
[19] = target: HIV-1 Env of pseudovirus R3265.c06 (HIV-1)
[20] = target: HIV-1 Env of pseudovirus 231966.c02 (HIV-1)
[21] = target: HIV-1 Env of pseudovirus 235-47 (HIV-1)
[22] = target: HIV-1 Env of pseudovirus T278-50 (HIV-1)
[23] = target: HIV-1 Env of pseudovirus 3301.v1.c24 (HIV-1)
[24] = target: HIV-1 Env of pseudovirus R1166.c01 (HIV-1)
[25] = target: HIV-1 Env of pseudovirus 6540.v4.c1 (HIV-1)
[26] = target: HIV-1 Env of pseudovirus 211-9 (HIV-1)
[27] = target: HIV-1 Env of pseudovirus P0402_c2_11 (HIV-1)
[28] = target: HIV-1 Env of pseudovirus 0815.v3.c3 (HIV-1)
[29] = target: HIV-1 Env of pseudovirus C4118.c09 (HIV-1)
[30] = target: HIV-1 Env of pseudovirus C3347.c11 (HIV-1)

Substance: 10E8 (antibody)
- IC50 neutralization (TZM.bl) [1]: 1.57 mg/L
- IC80 neutralization (TZM.bl) [1]: 9.95 mg/L
- IC50 neutralization (TZM.bl) [2]: 2.33 mg/L
- IC80 neutralization (TZM.bl) [2]: 9.77 mg/L
- IC50 neutralization (TZM.bl) [3]: 0.576 mg/L
- IC80 neutralization (TZM.bl) [3]: 6.05 mg/L
- IC50 neutralization (TZM.bl) [4]: 0.665 mg/L
- IC80 neutralization (TZM.bl) [4]: 7.36 mg/L
- IC50 neutralization (TZM.bl) [5]: 0.343 mg/L
- IC80 neutralization (TZM.bl) [5]: 1.91 mg/L
- IC50 neutralization (TZM.bl) [6]: > 10 mg/L
- IC80 neutralization (TZM.bl) [6]: > 10 mg/L
- IC50 neutralization (TZM.bl) [7]: 4.75 mg/L
- IC80 neutralization (TZM.bl) [7]: > 10 mg/L
- IC50 neutralization (TZM.bl) [8]: > 10 mg/L
- IC80 neutralization (TZM.bl) [8]: > 10 mg/L
- IC50 neutralization (TZM.bl) [9]: 0.272 mg/L
- IC80 neutralization (TZM.bl) [9]: 2.46 mg/L
- IC50 neutralization (TZM.bl) [10]: 0.107 mg/L
- IC80 neutralization (TZM.bl) [10]: 6.33 mg/L
- IC50 neutralization (TZM.bl) [11]: 1.78 mg/L
- IC80 neutralization (TZM.bl) [11]: 8.23 mg/L
- IC50 neutralization (TZM.bl) [12]: 8.08 mg/L
- IC80 neutralization (TZM.bl) [12]: > 10 mg/L
- IC50 neutralization (TZM.bl) [13]: 0.189 mg/L
- IC80 neutralization (TZM.bl) [13]: 0.974 mg/L
- IC50 neutralization (TZM.bl) [14]: 0.455 mg/L
- IC80 neutralization (TZM.bl) [14]: 6 mg/L
- IC50 neutralization (TZM.bl) [15]: 0.051 mg/L
- IC80 neutralization (TZM.bl) [15]: 1.91 mg/L
- IC50 neutralization (TZM.bl) [16]: 0.778 mg/L
- IC80 neutralization (TZM.bl) [16]: 4.21 mg/L
- IC50 neutralization (TZM.bl) [17]: 0.476 mg/L
- IC80 neutralization (TZM.bl) [17]: 4.39 mg/L
- IC50 neutralization (TZM.bl) [18]: 0.057 mg/L
- IC80 neutralization (TZM.bl) [18]: 0.285 mg/L
- IC50 neutralization (TZM.bl) [19]: > 10 mg/L
- IC80 neutralization (TZM.bl) [19]: > 10 mg/L
- IC50 neutralization (TZM.bl) [20]: 0.191 mg/L
- IC80 neutralization (TZM.bl) [20]: 3.13 mg/L
- IC50 neutralization (TZM.bl) [21]: 0.384 mg/L
- IC80 neutralization (TZM.bl) [21]: 2.07 mg/L
- IC50 neutralization (TZM.bl) [22]: 0.949 mg/L
- IC80 neutralization (TZM.bl) [22]: 7.46 mg/L
- IC50 neutralization (TZM.bl) [23]: 4.63 mg/L
- IC80 neutralization (TZM.bl) [23]: > 10 mg/L
- IC50 neutralization (TZM.bl) [24]: 0.274 mg/L
- IC80 neutralization (TZM.bl) [24]: 2.61 mg/L
- IC50 neutralization (TZM.bl) [25]: 1.9 mg/L
- IC80 neutralization (TZM.bl) [25]: 10 mg/L
- IC50 neutralization (TZM.bl) [26]: 1.09 mg/L
- IC80 neutralization (TZM.bl) [26]: 6.51 mg/L
- IC50 neutralization (TZM.bl) [27]: 0.172 mg/L
- IC80 neutralization (TZM.bl) [27]: 3.29 mg/L
- IC50 neutralization (TZM.bl) [28]: 0.332 mg/L
- IC80 neutralization (TZM.bl) [28]: 2.87 mg/L
- IC50 neutralization (TZM.bl) [29]: 1.62 mg/L
- IC80 neutralization (TZM.bl) [29]: 9.06 mg/L
- IC50 neutralization (TZM.bl) [30]: 0.016 mg/L
- IC80 neutralization (TZM.bl) [30]: 0.167 mg/L

Substance: PG9 (antibody)
- IC50 neutralization (TZM.bl) [1]: 1.73 mg/L
- IC80 neutralization (TZM.bl) [1]: 8.21 mg/L
- IC50 neutralization (TZM.bl) [2]: 0.244 mg/L
- IC80 neutralization (TZM.bl) [2]: 3.64 mg/L
- IC50 neutralization (TZM.bl) [3]: 0.697 mg/L
- IC80 neutralization (TZM.bl) [3]: 7.96 mg/L
- IC50 neutralization (TZM.bl) [4]: 1.1 mg/L
- IC80 neutralization (TZM.bl) [4]: 21.5 mg/L
- IC50 neutralization (TZM.bl) [5]: > 50 mg/L
- IC80 neutralization (TZM.bl) [5]: > 50 mg/L
- IC50 neutralization (TZM.bl) [6]: 28 mg/L
- IC80 neutralization (TZM.bl) [6]: > 50 mg/L
- IC50 neutralization (TZM.bl) [7]: 0.065 mg/L
- IC80 neutralization (TZM.bl) [7]: 0.304 mg/L
- IC50 neutralization (TZM.bl) [8]: 1.28 mg/L
- IC80 neutralization (TZM.bl) [8]: 48 mg/L
- IC50 neutralization (TZM.bl) [9]: 0.255 mg/L
- IC80 neutralization (TZM.bl) [9]: 1.24 mg/L
- IC50 neutralization (TZM.bl) [10]: 0.144 mg/L
- IC80 neutralization (TZM.bl) [10]: 0.335 mg/L
- IC50 neutralization (TZM.bl) [11]: 0.099 mg/L
- IC80 neutralization (TZM.bl) [11]: 0.351 mg/L
- IC50 neutralization (TZM.bl) [12]: > 50 mg/L
- IC80 neutralization (TZM.bl) [12]: > 50 mg/L
- IC50 neutralization (TZM.bl) [13]: 0.084 mg/L
- IC80 neutralization (TZM.bl) [13]: 0.286 mg/L
- IC50 neutralization (TZM.bl) [14]: 1.33 mg/L
- IC80 neutralization (TZM.bl) [14]: > 50 mg/L
- IC50 neutralization (TZM.bl) [15]: 0.322 mg/L
- IC80 neutralization (TZM.bl) [15]: 1.49 mg/L
- IC50 neutralization (TZM.bl) [16]: 0.023 mg/L
- IC80 neutralization (TZM.bl) [16]: 0.134 mg/L
- IC50 neutralization (TZM.bl) [17]: 2.46 mg/L
- IC80 neutralization (TZM.bl) [17]: > 50 mg/L
- IC50 neutralization (TZM.bl) [18]: 0.258 mg/L
- IC80 neutralization (TZM.bl) [18]: 2.51 mg/L
- IC50 neutralization (TZM.bl) [19]: 0.163 mg/L
- IC80 neutralization (TZM.bl) [19]: 0.535 mg/L
- IC50 neutralization (TZM.bl) [20]: 0.075 mg/L
- IC80 neutralization (TZM.bl) [20]: 0.257 mg/L
- IC50 neutralization (TZM.bl) [21]: 0.233 mg/L
- IC80 neutralization (TZM.bl) [21]: 1.2 mg/L
- IC50 neutralization (TZM.bl) [22]: 0.393 mg/L
- IC80 neutralization (TZM.bl) [22]: 3.19 mg/L
- IC50 neutralization (TZM.bl) [23]: 0.216 mg/L
- IC80 neutralization (TZM.bl) [23]: 0.756 mg/L
- IC50 neutralization (TZM.bl) [24]: 0.736 mg/L
- IC80 neutralization (TZM.bl) [24]: 2.88 mg/L
- IC50 neutralization (TZM.bl) [25]: 0.07 mg/L
- IC80 neutralization (TZM.bl) [25]: 0.253 mg/L
- IC50 neutralization (TZM.bl) [26]: 0.049 mg/L
- IC80 neutralization (TZM.bl) [26]: 0.243 mg/L
- IC50 neutralization (TZM.bl) [27]: 0.296 mg/L
- IC80 neutralization (TZM.bl) [27]: 2.37 mg/L
- IC50 neutralization (TZM.bl) [28]: > 50 mg/L
- IC80 neutralization (TZM.bl) [28]: > 50 mg/L
- IC50 neutralization (TZM.bl) [29]: 0.068 mg/L
- IC80 neutralization (TZM.bl) [29]: 0.2 mg/L
- IC50 neutralization (TZM.bl) [30]: 0.032 mg/L
- IC80 neutralization (TZM.bl) [30]: 0.113 mg/L
